We go through six sequences from the DeepSol protein solubility set.

The data set can be described thus: soluble on expression in E. coli; label from the status in PepcDB or PDB records.
In the case of “MKKVIAGLAAASVAGVAVPGMDSAHAQVSNEALKEINGQTQTQTQTQTTVTETKTVETTSELKYTVTADVLNVRSGAGTGHNVISKVKSGQVLQVVGQENGWFKVNVNGQTGYVSGDFVTTGGKTGTTVQQGTGTYTVNVSSLNVRTGPSTSHTVLGSVNKGKTVQVVGEVQDWFKINFNGGTGYVSKDFVTKGGSAVSNETQQPTTNNNTTTVQTGGSYVVNTGALKVRTGPATYNAVIGGVTNGKVLNVTGAENGWYKINHNGRTGYVSADFVKFVKGGVNNVTNNNNVTNNVQQPGKDVQKPTTGGDTSSIAGFARSLNGSPYRTAGTTPAGFDCSGFIHYVLNQTGHKGARQTVAGYWSSKTKTSNPQPGDLVYFQNTYKSGPSHMGVYLGNGQFISAETDATGVRISSVSNSYWSKHLLGYTKAYLEHHHHHH”, the “soluble on expression in E. coli” value is recorded as “soluble”.
In the case of “MAAQVLSGHEAAEAVYEEIRARLRSLSFTPSLRVIRLGEDPASVAYVRLKDKRARALGYRSQVEVYPEDLPEEALLERIAALNADEEVDGILVQLPLPPHIRTQRVLEAIHPLKDVDGFHPLNVGRLWSGGKGLFPCTPLGVVRLLKHYGVDLRGKEVVVVGRSNIVGKPLAGLLLREDATVTLAHSKTQDLPEVTRRAQVLVVAVGRPHLVRKEWVREGAIVVDVGVNRVEGRLLGDVHPEVAEVAFALTPVPGGVGPMTVAMLMGNTLEAALLRRHGASG”, the “soluble on expression in E. coli” value is on record as “soluble”.
Regarding “MGSDKIHHHHHHMREENYEEAAKAFNAAIEANPSDPIGFVNFGNLLGMVGELDKALIFFDKAIGLQEDCAPAYYGAGTIYYKQEKFEDGAKMFKQAIAHKLNETDVYFMLGMCYYQLGALPHAQANFQRALELDSNDVEARFQLGLCLAQLEQVDEAIKHLQLVVEHVPNHADAHFNLGVAYAYKDRLEEALAHFERAIHIQPEHILAHNGKKTVEEVLNKGANEA”, the “soluble on expression in E. coli” value is given as “not soluble”.
The entry for “MLLNMMCGRQLSAISLCLAVTFAPLFNAQADEPEVIPGDSPVAVSEQGEALPQAQATAIMAGIQPLPEGAAEKARTQIESQLPAGYKPVYLNQLQLLYAARDMQPMWENRDAVKAFQQQLAEVAIAGFQPQFNKWVELLTDPGVNGMARDVVLSDAMMGYLHFIANIPVKGTRWLYSSKPYALATPPLSVINQWQLALDKGQLPTFVAGLAPQHPQYAAMHESLLALLCDTKPWPQLTGKATLRPGQWSNDVPALREILQRTGMLDGGPKITLPGDDTPTDAVVSPSAVTVETAETKPMDKQTTSRSKPAPAVRAAYDNELVEAVKRFQAWQGLGADGAIGPATRDWLNVTPAQRAGVLALNIQRLRLLPTELSTGIMVNIPAYSLVYYQNGNQVLDSRVIVGRPDRKTPMMSSALNNVVVNPPWNVPPTLARKDILPKVRNDPGYLESHGYTVMRGWNSREAIDPWQVDWSTITASNLPFRFQQAPGPRNSLGRYKFNMPSSEAIYLHDTPNHNLFKRDTRALSSGCVRVNKASDLANMLLQDAGWNDKRISDALKQGDTRYVNIRQSIPVNLYYLTAFVGADGRTQYRTDIYNYDLPARSSSQIVSKAEQLIR” is “soluble”; for “MGSDKIHHHHHHVEGLIFQSSEFGTDEIYANMEEYIMQITRDNYSQYAQMVQQMFGKKASSNDPLAQCDYGNFSLRFKPVDINFTKPNWDTIMTKRDKPAMSEEEFDEAIKELARKEFATGKRDDDAYRKLCMQHGETVSPDRKAIYESSMKKTGGKMNAACMFWDSKGNKTLSYNPESRNWKAISTDEEFARARVFTSIYNDELARLKEEYGEKAKGNVSYSKIKVDISAERSKEKNNNEGNTIDLQI” it is “not soluble”; for “MWKITENLYLAQLPMIVGPTSKQEFSKNDIKRVLTLTTEPISEKQKIGGVDYKFLHLLDMPDEPILDNAILETAVLYINEGVEKEENVGVHCLAAVSRSVSICAAYLMYKNQWPVEKALKMIESVRKTIGPNAGFLAQLKIWERSGMSFSADQYKNLKIDIPGITCVDSKTIWRQPVIDDQTKVRFKCRQCRKVIFNSDNIVHPLAEACQKYLIEPMAWLNVSGATCSVSHTCGAKLGTFIASGSKCNGCNKFVRQWIFINRTKLDKVEIAT” it is “not soluble”.
